One assay has as its target CaM (UniProt P0DP23). Briefly: SPR. To be noted: cited from earlier work.
Another assay has as its target G-actin (UniProt P60709). To be noted: cited from earlier work.
Another assay concerns the target F-actin (UniProt P60709). To be noted: cited from earlier work.
The target in assay [1] is 26S proteasome from BALB/c mouse (mouse (endogenous in BALB/c brain)) (UniProt O35226).
Chain of UniProt O35226 (O35226 whole entry, looked up): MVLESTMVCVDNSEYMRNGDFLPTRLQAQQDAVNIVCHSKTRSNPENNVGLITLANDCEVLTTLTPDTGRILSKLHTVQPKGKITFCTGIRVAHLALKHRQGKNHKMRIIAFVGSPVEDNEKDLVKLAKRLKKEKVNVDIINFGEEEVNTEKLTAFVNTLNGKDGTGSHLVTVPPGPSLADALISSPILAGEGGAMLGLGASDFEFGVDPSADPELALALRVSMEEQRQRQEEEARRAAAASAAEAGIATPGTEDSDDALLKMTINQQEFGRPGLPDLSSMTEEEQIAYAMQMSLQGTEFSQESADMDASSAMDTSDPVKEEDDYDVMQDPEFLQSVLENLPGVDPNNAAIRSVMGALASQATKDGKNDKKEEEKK

For MBP (from UniProt P04370), the dissociation constant (Kd) in the assay with CaM was 200 nM.

Consider MBP (from UniProt P02686), for which the dissociation constant (Kd) in the assay with G-actin was 66.6 nM; with F-actin, 65.3 nM.

Regarding MBP (from UniProt P81558), the Kd in the assay with CaM was 148 nM.

Take “Histone H1.3 human, recombinant (from UniProt P16402 1-221) (natural protein)”: in assay [1], the theoretical KD estimated from the inhibition curve of 26S-mediated MBP hydrolysis, assuming that bound 26S proteasome cannot degrade MBP (blocks m1 with m2) is 1000 nM.

The record behind these values is paper PMC4172982.
